A word on the Kd: it is the free concentration of one partner at which half of the binding sites on the other are occupied at equilibrium, for simple one-to-one binding.

Results on two molecules are retold here after publication PMC3087822 (Nature structural & molecular biology, 2011).

Experiment [1] deals with rat Munc13-1(859–1407,1453–1531) fragment (MUN*) (rat) (UniProt Q62768). Description: NMR titration.
The target in experiment [2] is cytoplasmic domain (residues 2–253) of rat syntaxin-1A (rat, UniProt P32851 2-253). The experiment is described as follows: SEC.

The molecule “Munc18-1–SNARE complex assembly (Munc18-1 plus SNARE complex as titrated on 15N-MUN*) (from UniProt P32851;P63045;P60880)” came in with a Kd in experiment [1] of 13 µM.

B1: human SNAP25 (residues 11–82) (domain or fragment)
chain: LEEMQRRADQLADESLESTRRMLQLVEESKDAGIRTLVMLDEQGEQLERIEEGMDQINKDMKEAEKNLTDLG
As for B1, the binding result in experiment [2] is given as “binds”.
